Assay results published in the supplement of paper PMC9170038.

System: MS2 coat protein
Assay: apparent KD of MS2 coat protein; designed switch direction (-1 OFF switch, 1 ON switch): -1; higher = weaker reporter binding
Procedure, shortened: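 Three titration conditions were used: no input, 200 uM small-molecule ligand, and an oligonucleotide input. In each, SNAP-549-labelled MS2 coat protein was raised from 0.7 or 1.5 nM, doubling, to 3 µM over designed RNA switches transcribed on Illumina chips by stalled E. coli RNA polymerase. Curve fits of normalised cluster fluorescence gave values whose per-design median over clusters is the apparent KD.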

[1] = input ligand: microRNA oligo, concentration not stated
[2] = Eterna round: R95, input ligand: FMN 200 uM
[3] = Eterna round: R95, input ligand: microRNA oligo, concentration not stated
[4] = Eterna round: R95, input ligand: none

In the case of “UAUUUAGCAAGCAGAUCCUACAUGAGGAUCACCCAUGUGCUCUGAAAUAACGCAGAAUUACUGCGAGCUCGUCUUAU [Winner reversed engineered 27] (Eterna round: R97, puzzle: Sensor, turn-off variant 1)”, the “apparent KD of MS2 coat protein” value (input ligand: FMN 200 uM) is reported as 85.7 nM and the “apparent KD of MS2 coat protein” value (input ligand: none) is reported as 120 nM.
With “AUCAGCUCGUGAGGAUAUACAUCACUGCUUCGGCAGUGUAUUAAGAUCACAUGAGGAUCACCCAUGUAGAAGGUACGAGCUGAU [ENG2/2-C3] (Eterna round: R96, puzzle: Exclusion NG 2)” the “apparent KD of MS2 coat protein” value (input ligand: FMN 200 uM) was 215 nM, the “apparent KD of MS2 coat protein” value [1] was 20.8 nM and the “apparent KD of MS2 coat protein” value (input ligand: none) was 26.1 nM.
With “GUAAUGCUGCGAGGAUAUACAUGAGGAUCACCCAUGUGGAUGUCUGAGGCUUUGCCUCAGACGAUGUAGAAGGCGCAGUAAAAU [Mat - Exclusion NG 2 - Mod of JL - D53] (Eterna round: R96, puzzle: Exclusion NG 2)” the “apparent KD of MS2 coat protein” value (input ligand: FMN 200 uM) was 87.5 nM, the “apparent KD of MS2 coat protein” value [1] was 11.5 nM and the “apparent KD of MS2 coat protein” value (input ligand: none) was 28.3 nM.
With “UUAAUUCUGAUUCUUGAAAUACAUGAGGAUCACCCAUGUUCACAGGAUAUUGAUUAUGUUAGUAACAAGAAGGGUGUAACAUAU [JR_ExcNG3_Sub037] (Eterna round: R96, puzzle: Exclusion NG 3)” the “apparent KD of MS2 coat protein” value [1] was 26.4 nM.
With “GCUUGAGCAGGAUAUACAUGAGGAUCACCCAUGUGCUUGAGCUUGAUCGAGUUCGAGUGUAGAAGGGUUCGAGU [-26.9, -23.9 kcal, 24% A, 1 bis, 1 bis] (Eterna round: R97, puzzle: Exclusion 3)” the “apparent KD of MS2 coat protein” value (input ligand: FMN 200 uM) was 20.8 nM and the “apparent KD of MS2 coat protein” value (input ligand: none) was 19.7 nM.
For “AUGAGCAGACGGAGAUCCAACAUGAGGAUCACCCAUGUCUCAUAAGCUUUUUGCUCAUCUUAUUGUACCUUGGUGCU [Mat - Sensor v3 - turn-off var 1 - JL Mod - D19] (puzzle: Sensor v3, turn-off variant 1)”, the “apparent KD of MS2 coat protein” value [2] was 191 nM, the “apparent KD of MS2 coat protein” value [3] was 11.5 nM and the “apparent KD of MS2 coat protein” value [4] was 251 nM.
For “AACCUCGGAGGAUAUACCUACCGAUUCACAAGUGUCACAUCACAUGAGGAUCACCCAUGUAGAAGGUCGAGGCG [Onorzais] (puzzle: Exclusion 2)”, the “apparent KD of MS2 coat protein” value [3] was 30.1 nM.
“UAGUGAAACACAGGAUAUCGCCUCUUAUUACAUGAGGAUCACCCAUGUUUAGUUAGUUACAUGUACGAGAAGGGUGAAGUAGUU [JR_ExcNG2_Sub040] (Eterna round: R96, puzzle: Exclusion NG 2)” was tested, and the “apparent KD of MS2 coat protein” value (input ligand: FMN 200 uM) was 1110 nM, the “apparent KD of MS2 coat protein” value [1] was 674 nM and the “apparent KD of MS2 coat protein” value (input ligand: none) was 1430 nM.
With “GGGAGGAGAGUGAGGAUAUUCGAGGGAGGGAGGGUGAAGAAGGCACAUGAGGAUCACCCAUGUGGUGGGAGGUU [RHig 1] (Eterna round: R97, puzzle: Brourd's mod of Exclusion 4)” the “apparent KD of MS2 coat protein” value (input ligand: FMN 200 uM) was 23.9 nM and the “apparent KD of MS2 coat protein” value (input ligand: none) was 38.3 nM.
For “CUUAAAAGGAAGGAUAUGCUAGACGAAAGUCUAGCAGAAGGUCCUACAUGAGGAUCACCCAUGUGUCCUGUAAG [Mat - Exclusion 6 - Eli Mod - D41] (Eterna round: R97, puzzle: Exclusion 6)”, the “apparent KD of MS2 coat protein” value (input ligand: FMN 200 uM) was 95.6 nM and the “apparent KD of MS2 coat protein” value (input ligand: none) was 53.9 nM.
For “UAAUUAAUUAAUUAAUAAUACAUGAGGAUCACCCAUGUAGAUCCUACAUACAAGCUUUGUAGCUCGUCUUAUAAUUA [Stov1/3-A1] (Eterna round: R97, puzzle: Sensor, turn-off variant 1)”, the “apparent KD of MS2 coat protein” value (input ligand: FMN 200 uM) was 214 nM and the “apparent KD of MS2 coat protein” value (input ligand: none) was 337 nM.
In the case of “CCGGGUUAUGUUAGGAUAUGUAGGCCGCAACCGGAACAGAAGGGACAUGAGGAUCACCCAUGUGAUAUUCCCGG [Onxexe] (puzzle: Brourd's mod of Exclusion 4)”, the “apparent KD of MS2 coat protein” value [3] is reported as 17.5 nM.
“CUUCAAGCACCAGAGCUCACACUUAUACCUGCUCUGGUGACAUGAGGAUCACCCAUGUUUUUUGCCCGUCUUAUCUU [Sensor v3, turn-off variant 2 (MOD of Leso v.2)] (puzzle: Sensor v3, turn-off variant 2)” was tested, and the “apparent KD of MS2 coat protein” value [2] was 92.8 nM, the “apparent KD of MS2 coat protein” value [3] was 276 nM and the “apparent KD of MS2 coat protein” value [4] was 115 nM.
In the case of “AAAAUACAUGAGGAUCACCCAUGUCAGGAUAUGCUAAAAAAAAAAUUAAAAAAAAAAUGUAGAAGGGACUAAAA [Exclusion Z2] (Eterna round: R96, puzzle: Exclusion 1)”, the “apparent KD of MS2 coat protein” value [1] is reported as 71.6 nM.
With “AAUUAAUGAGGAUAUACAGUGUAAAACAUGAGGAUCACCCAUGUUCUUCAAUUAGUAUUUGUAGAAGGCAUAGGUA [JR_Ex5_Sub093] (Eterna round: R97, puzzle: Exclusion 5)” the “apparent KD of MS2 coat protein” value (input ligand: FMN 200 uM) was 32 nM and the “apparent KD of MS2 coat protein” value (input ligand: none) was 61.4 nM.
In the case of “AACAUGUGAGGAUAUUUAAGAAAAGAAAAGAAAGAAAAGAAAAAGAAGGCACAUGAGGAUCACCCAUGUAAGAA [EteRNA is fun!] (Eterna round: R96, puzzle: Exclusion 4)”, the “apparent KD of MS2 coat protein” value [1] is reported as 19 nM.
With “GGGUGACAGUUAGGAUAUCUUAGCACGCCGUAGAGAGAAGGAACAUGAGGAUCACCCAUGUUGUAGUGCCUCCGGCACUGCUAG [Zaquata] (Eterna round: R96, puzzle: Exclusion NG 1)” the “apparent KD of MS2 coat protein” value (input ligand: FMN 200 uM) was 59.2 nM, the “apparent KD of MS2 coat protein” value [1] was 30.1 nM and the “apparent KD of MS2 coat protein” value (input ligand: none) was 43.5 nM.
For “UGCGUUUGAGGAUAUACGUAGAAAUAGAUUCAUGUAAAACUACAUGAGGAUCACCCAUGUAGAAGGCAAGCGCU [Mat - Exclusion 2 - JL Mod - D39] (Eterna round: R97, puzzle: Exclusion 2)”, the “apparent KD of MS2 coat protein” value (input ligand: FMN 200 uM) was 239 nM and the “apparent KD of MS2 coat protein” value (input ligand: none) was 26.4 nM.
In the case of “GAAUACAGAGGAUAUGCGUAAUAGGUAGUAAGAUAUAUAUGACAUGAGGAUCACCCAUGUAGAAGGCUGAGAUA [EX2 #1] (Eterna round: R97, puzzle: Exclusion 2)”, the “apparent KD of MS2 coat protein” value (input ligand: FMN 200 uM) is reported as 26.9 nM and the “apparent KD of MS2 coat protein” value (input ligand: none) is reported as 30.5 nM.
With “CUUAAACAUGAGGAUCACCCAUGUGAGGAUAUGAUGCGAAUAAAGAAAGAAGAAAGCAUCAGAAGGCACAUAUG (Eterna round: R96, puzzle: Exclusion 1)” the “apparent KD of MS2 coat protein” value [1] was 65.9 nM.
“UUAUUAUAUGUAGGAUAUGCGUAUUAUUGUUAUGCAGAAGGACAUGAGGAUCACCCAUGUAUAUUAUUGUUAUAUAUUAUAUGU [Title] (Eterna round: R96, puzzle: Exclusion NG 1)” was tested, and the “apparent KD of MS2 coat protein” value (input ligand: FMN 200 uM) was 110 nM, the “apparent KD of MS2 coat protein” value [1] was 26.6 nM and the “apparent KD of MS2 coat protein” value (input ligand: none) was 30.3 nM.
“UGAGUGCUGCGAGGAUAUACAUGAGGAUCACCCAUGUGGAUGUCUGAGGCUUUGCCUCAGACAAUGUAGAAGGCGCAGUACUCU [JL ENG2 1.21] (Eterna round: R96, puzzle: Exclusion NG 2)” was tested, and the “apparent KD of MS2 coat protein” value (input ligand: FMN 200 uM) was 96.4 nM, the “apparent KD of MS2 coat protein” value [1] was 14.2 nM and the “apparent KD of MS2 coat protein” value (input ligand: none) was 21 nM.
“UCCUGACAUGAGGAUCACCCAUGUAAGGAUAUUAAAACGACUGAACAACUCAGCGGUAUAAGAAGGUACAUGUA [EX1 A.10] (Eterna round: R97, puzzle: Exclusion 1)” was tested, and the “apparent KD of MS2 coat protein” value (input ligand: FMN 200 uM) was 12 nM and the “apparent KD of MS2 coat protein” value (input ligand: none) was 14.4 nM.
In the case of “GAGUGACAUGAGGAUCACCCAUGUGAGGAUAUCGGACGGACCAAAUUAACAUCCGCCGCGAGAAGGCACAUCGG [Exclusion 1 V22] (puzzle: Exclusion 1)”, the “apparent KD of MS2 coat protein” value [3] is reported as 69.4 nM.
“UUAUUGUGAGGAUAUCAGGUGUGCUAGCGUACUGGUACAUCUGAGAAGGCACAUGAGGAUCACCCAUGUUUCUU [JL-ex4-3.22 Brourd mod] (puzzle: Exclusion 4)” was tested, and the “apparent KD of MS2 coat protein” value [3] was 21.1 nM.
In the case of “UUUUGCAAGCAAAUUGUCAACAUGAGGAUCACCCAUGUGGAAGCCUUGGAGGGUGGGACCGUAAGUAGAGCUCGUUU [Eternabot (L2) Solution 34] (Eterna round: R97, puzzle: Sensor, turn-off variant 1)”, the “apparent KD of MS2 coat protein” value (input ligand: FMN 200 uM) is reported as 38.1 nM and the “apparent KD of MS2 coat protein” value (input ligand: none) is reported as 39.2 nM.
For “CGAUAAAGCUGAGGAUAUGAGAAUAGAAAGAAAUCAGAAGGCAGACAUGAGGAUCACCCAUGUGAGUUCUCGAGAUUAGAUAUU [Prohibition 47 - Jieux - Exclusion NG 1] (Eterna round: R96, puzzle: Exclusion NG 1)”, the “apparent KD of MS2 coat protein” value [1] was 22.2 nM.
“CAUACUGAAGUUAGGAUAUGCGGCCGAAUACGGGUGUAGAAGGGACAUGAGGAUCACCCAUGUAGAUAGUAAAG [EX-4 Malc #16] (puzzle: Brourd's mod of Exclusion 4)” was tested, and the “apparent KD of MS2 coat protein” value [2] was 27.3 nM, the “apparent KD of MS2 coat protein” value [3] was 24.9 nM and the “apparent KD of MS2 coat protein” value [4] was 20.1 nM.
With “CGAUAAAAGUGAGGAUAUGAGGAGAGAGAGAGAUCAGAAGGCACACAUGAGGAUCACCCAUGUGAGUUCUCGAAAUUAAAUAUU [Prohibition 49 - Jieux - Exclusion NG 1] (Eterna round: R96, puzzle: Exclusion NG 1)” the “apparent KD of MS2 coat protein” value (input ligand: FMN 200 uM) was 15.2 nM, the “apparent KD of MS2 coat protein” value [1] was 11.4 nM and the “apparent KD of MS2 coat protein” value (input ligand: none) was 18 nM.
With “CAGCUGAAAGUCAGGAUAUCUAGAGCUUCGGCUCUAGAGAAGGGACAUGAGGAUCACCCAUGUGAUUACAGCUG [BmEx4/6-A1] (Eterna round: R97, puzzle: Brourd's mod of Exclusion 4)” the “apparent KD of MS2 coat protein” value (input ligand: FMN 200 uM) was 108 nM and the “apparent KD of MS2 coat protein” value (input ligand: none) was 60.6 nM.
In the case of “GAUUGACAUGAGGAUCACCCAUGUGAGGAUAUCGGCCGGACCUUGUUAGCUUCCAUCGUGAGAAGGCACAUAGG [Exclusion 1 V35] (puzzle: Exclusion 1)”, the “apparent KD of MS2 coat protein” value [3] is reported as 26.9 nM.
For “CCGGUUGGCGCAGGAUAUACAUGAGGAUCACCCAUGUUCAUCAGGAUCACCGAUGAGUUUUUGUUGUAGAAGGGUGGCCCGGCC (Eterna round: R96, puzzle: Exclusion NG 2)”, the “apparent KD of MS2 coat protein” value [1] was 24.2 nM.
With “ACAUGAGGAUCACCCAUGUCUGGCUGGUCUGCUCCGGCUGUUGAGGAUAUAGUUCGGUGUUCGCGCUAGAAGGUGAGGGCUGGC [Aenatbe mod 37] (Eterna round: R96, puzzle: Exclusion NG 3)” the “apparent KD of MS2 coat protein” value (input ligand: FMN 200 uM) was 32.2 nM, the “apparent KD of MS2 coat protein” value [1] was 23.1 nM and the “apparent KD of MS2 coat protein” value (input ligand: none) was 35.6 nM.
In the case of “CUUUUGUGAGGAUAUGGUAACGAUGACAUGAGGAUCACCCAUGUAACAUGGGACUUGAGACUAGAAGGCACUAACG [JR_Ex5_Sub025] (Eterna round: R97, puzzle: Exclusion 5)”, the “apparent KD of MS2 coat protein” value (input ligand: FMN 200 uM) is reported as 94.7 nM and the “apparent KD of MS2 coat protein” value (input ligand: none) is reported as 134 nM.
